According to paper PMC9935389, “Structural insights into the regulation of Cas7-11 by TPR-CHAT”:

Molecular target: DmCas7-11;DmTPR-CHAT full-length (Desulfonema magnum;Desulfonema magnum, UniProt A0A975GRY4;A0A975BRS1 1-1785;1-822, |)
Assay: cryo-EM; Craspase complex with full TPR-CHAT, 3.2 A; PDB 7ZOL or 7ZOQ (assignment not stated); EMSA: 32.5 mM HEPES-NaOH pH 7.5, 100 mM NaCl, 2.5 mM DTT, 1 U/ul RNase inhibitor, 50 nM RNA, 30 min on ice; no Mg2+ listed
Conditions: protein: recombinant;recombinant; tags: 6xHis (N-terminal);Twin-Strep (N-terminal); copies: 1;1; single strand

Chain of DmCas7-11;DmTPR-CHAT full-length (chain, as listed by the source |, chain 1 of 2): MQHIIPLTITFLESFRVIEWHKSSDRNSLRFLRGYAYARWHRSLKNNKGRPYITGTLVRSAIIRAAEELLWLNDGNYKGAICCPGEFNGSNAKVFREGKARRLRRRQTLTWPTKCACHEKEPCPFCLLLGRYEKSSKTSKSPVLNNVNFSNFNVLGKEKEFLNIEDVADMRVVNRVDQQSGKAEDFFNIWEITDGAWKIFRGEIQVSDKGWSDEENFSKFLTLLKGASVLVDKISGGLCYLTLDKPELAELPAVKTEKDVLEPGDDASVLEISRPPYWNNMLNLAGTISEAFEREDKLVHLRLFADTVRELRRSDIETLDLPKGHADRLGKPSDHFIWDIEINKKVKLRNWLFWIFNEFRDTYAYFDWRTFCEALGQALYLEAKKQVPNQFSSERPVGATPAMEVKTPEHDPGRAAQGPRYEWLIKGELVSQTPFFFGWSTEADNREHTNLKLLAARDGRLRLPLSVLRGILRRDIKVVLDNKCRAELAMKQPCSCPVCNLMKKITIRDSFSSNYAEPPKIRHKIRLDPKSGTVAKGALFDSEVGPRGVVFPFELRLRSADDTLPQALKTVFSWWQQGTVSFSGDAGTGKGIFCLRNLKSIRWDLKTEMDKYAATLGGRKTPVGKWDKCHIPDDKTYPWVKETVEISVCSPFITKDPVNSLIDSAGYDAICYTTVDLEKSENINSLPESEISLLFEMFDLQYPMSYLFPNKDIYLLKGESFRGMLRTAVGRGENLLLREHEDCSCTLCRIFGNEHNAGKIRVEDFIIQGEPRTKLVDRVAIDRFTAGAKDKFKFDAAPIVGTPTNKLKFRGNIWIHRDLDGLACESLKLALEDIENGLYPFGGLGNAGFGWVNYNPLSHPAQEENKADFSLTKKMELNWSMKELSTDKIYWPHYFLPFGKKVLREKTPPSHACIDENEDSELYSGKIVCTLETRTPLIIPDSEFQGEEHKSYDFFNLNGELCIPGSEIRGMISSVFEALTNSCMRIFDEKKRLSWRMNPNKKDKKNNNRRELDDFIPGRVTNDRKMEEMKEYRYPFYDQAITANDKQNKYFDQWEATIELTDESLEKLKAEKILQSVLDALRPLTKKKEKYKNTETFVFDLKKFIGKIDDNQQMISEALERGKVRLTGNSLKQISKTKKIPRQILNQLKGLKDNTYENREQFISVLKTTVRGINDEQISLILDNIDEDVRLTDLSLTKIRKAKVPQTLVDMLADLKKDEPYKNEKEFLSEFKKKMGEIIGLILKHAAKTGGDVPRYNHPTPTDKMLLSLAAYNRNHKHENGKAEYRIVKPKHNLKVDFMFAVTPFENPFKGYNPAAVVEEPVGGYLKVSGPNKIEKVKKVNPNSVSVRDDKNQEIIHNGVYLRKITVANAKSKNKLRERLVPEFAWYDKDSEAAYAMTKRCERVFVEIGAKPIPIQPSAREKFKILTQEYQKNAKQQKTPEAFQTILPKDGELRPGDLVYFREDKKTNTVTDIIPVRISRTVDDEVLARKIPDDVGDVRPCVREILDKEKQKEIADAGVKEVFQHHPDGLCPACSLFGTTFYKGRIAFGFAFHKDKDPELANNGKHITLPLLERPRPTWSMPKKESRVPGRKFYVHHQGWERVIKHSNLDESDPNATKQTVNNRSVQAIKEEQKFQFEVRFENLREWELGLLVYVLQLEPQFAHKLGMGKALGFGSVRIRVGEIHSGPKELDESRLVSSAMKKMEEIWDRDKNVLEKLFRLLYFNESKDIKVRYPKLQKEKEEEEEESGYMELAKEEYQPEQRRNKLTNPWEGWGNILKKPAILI
Chain of DmCas7-11;DmTPR-CHAT full-length (chain, as listed by the source |, chain 2 of 2): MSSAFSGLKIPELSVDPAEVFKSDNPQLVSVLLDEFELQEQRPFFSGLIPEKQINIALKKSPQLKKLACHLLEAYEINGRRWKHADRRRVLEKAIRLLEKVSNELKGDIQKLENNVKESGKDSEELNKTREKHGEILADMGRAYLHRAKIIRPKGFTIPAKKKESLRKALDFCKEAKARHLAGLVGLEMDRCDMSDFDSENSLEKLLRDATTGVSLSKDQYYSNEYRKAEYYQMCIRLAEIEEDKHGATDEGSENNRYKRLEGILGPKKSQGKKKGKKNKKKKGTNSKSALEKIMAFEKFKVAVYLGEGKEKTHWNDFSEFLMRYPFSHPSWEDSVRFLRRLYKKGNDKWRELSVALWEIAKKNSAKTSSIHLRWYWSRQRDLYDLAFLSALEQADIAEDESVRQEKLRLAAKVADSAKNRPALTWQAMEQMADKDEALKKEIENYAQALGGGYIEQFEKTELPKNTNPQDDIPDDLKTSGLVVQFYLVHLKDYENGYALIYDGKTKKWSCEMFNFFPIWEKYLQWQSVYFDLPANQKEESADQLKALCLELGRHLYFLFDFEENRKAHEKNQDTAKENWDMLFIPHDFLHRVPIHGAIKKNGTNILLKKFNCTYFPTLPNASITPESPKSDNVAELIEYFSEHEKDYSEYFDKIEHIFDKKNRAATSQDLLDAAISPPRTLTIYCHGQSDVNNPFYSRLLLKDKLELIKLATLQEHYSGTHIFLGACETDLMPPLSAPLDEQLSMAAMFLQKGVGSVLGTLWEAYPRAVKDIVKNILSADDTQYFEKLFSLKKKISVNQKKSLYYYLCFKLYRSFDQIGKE

UUAUGUGAUGGAACCUCUCCGGAUAAUUCUAUCUCUUCUG (ssRNA) [crRNA (13+ nt 5' handle, spacer C15-G40 modelled)]
binding result: binds
